Legend:
[1] = test system: adults with moderate-to-severe chronic pain associated with osteoarthritis (OA) of the knee or hip; test: FACT OA2 (NCT03304379, R475-OA-1688) Phase 3 trial, WOMAC pain and physical function; format: in vivo, human
From the text: (§1) NCT02683239 (R475-PN-1523, or “FACT LTS”), NCT03161093 (R475-OA-1611, or “FACT OA1”), and NCT03304379 (R475-OA-1688, or “FACT OA2”) each were Phase 3 trials evaluating fasinumab in adults with moderate-to-severe chronic pain associated with osteoarthritis (OA) of the knee or hip. All three of these trials enrolled patients with OA of the knee or hip who had inadequate pain relief with acetaminophen and were intolerant to or had inadequate pain relief with opioids, or were unwilling or unable to take opioids. Complete inclusion and exclusion criteria for the trials are described at clinicaltrials.gov/ct2/show/NCT03161093, clinicaltrials.gov/ct2/show/NCT03304379, and clinicaltrials.gov/ct2/show/NCT02683239.
FACT OA1 and FACT OA2 assessed the efficacy of fasinumab in comparison to nonsteroidal anti-inflammatory drugs (NSAIDs; naproxen, diclofenac, or celecoxib) for treatment of OA. FACT OA1 includes results from a total of 1,801 patients randomized to one of four treatment arms: fasinumab 1 mg SC once every 8 weeks (Q8W) (n=304), fasinumab 1 mg SC once every 4 weeks (Q4W) (n=639), naproxen 500 mg twice daily (n=644), or placebo (n=214). In FACT OA2, patients were randomized into one of six treatment groups: fasinumab 1 mg SC once every 4 weeks (Q4W), fasinumab 3 mg SC once every 4 weeks (Q4W), fasinumab 6 mg SC once every 8 weeks (Q8W), celecoxib 200 mg once daily, diclofenac 75 mg twice daily, or placebo. While the FACT OA2 trial was still ongoing, enrollment into the fasinumab 3 mg Q4W and 6 mg Q8W groups was stopped for safety considerations; patients enrolled in those dose regimens discontinued study drug and entered the post-treatment follow-up period.
Fasinumab patients in both trials also reported improvements in their pain and physical function (WOMAC score) compared to those treated with the highest-approved prescription doses of NSAIDS.

[2] = test system: adults with moderate-to-severe chronic pain associated with osteoarthritis (OA) of the knee or hip; test: Adjudicated arthropathies across the three fasinumab Phase 3 trials; format: in vivo, human; conditions: across all three Phase 3 trials
From the text: as §1
(§2) The FACT LTS study evaluated the long-term safety and tolerability of fasinumab, including adverse events of special interest such as joint damage (e.g. arthropathies), compared with placebo. A total of 2,411 patients were randomized to one of the following treatment arms: (1) fasinumab 1 mg subcutaneous (SC) every 8 weeks (Q8W); (2) fasinumab 1 mg SC every 4 weeks (Q4W); or (3) matching placebo SC Q4W. This study also included a substudy evaluating the efficacy of fasinumab in these same patient groups (n=215 in fasinumab 1 mg Q8W, n=217 in fasinumab 1 mg Q4W, n=214 in placebo).

[3] = test system: patients with OA of the knee and/or hip; test: ISS rates of DA and AA above and below cut-offs for change in alkaline phosphatase at 16 weeks
From the text: To explore this possibility, three different cut-offs at 16 weeks were chosen (10, 15 and 20 U/L change from baseline) and the rate of DA above and below each cut-off was examined (FIG. 6). Of note, the standard deviation for change in alkaline phosphatase in the placebo arm is 12.9 at 8 weeks and 12.7 at 16 weeks.

alkaline phosphatase = conditions: DA patients at all doses; by 16 weeks
From the text: Three non-overlapping subgroups are shown: patients without AA, patients with DA and patients with non-DA AAs.

[4] = test system: patients with OA of the knee and/or hip; test: Integrated summary of safety (ISS): JR, AA, DA by number of large joints with OA at baseline; format: in vivo, human
Procedure: To improve risk-benefit for patients, analyses were conducted to identify populations of patients that might be at greater risk for joint-related adverse events. An integrated summary of safety (ISS) analysis was performed using pooled data from the clinical studies R475-PN-1612 (NCT03285646), R475-PN-1227 (NCT02447276), R475-PN-1523 (NCT02683239), R475-OA-1611 (NCT03161093), R475-OA-1688 (NCT03304379), R475-OA-1758 (NCT03691974), and MT-5547-J01 (NCT03245008).
As used in this Example, the term “adjudicated arthropathy” or “AA” is an umbrella term that encompasses the following conditions: rapidly progressive OA type 1 or 2, subchondral insufficiency fractures, and primary osteonecrosis. The term “destructive arthropathy” or “DA” refers to abnormal bone fragmentation, destruction, or fracture over a short period of time, which are observed by X-ray radiography and which are features inconsistent with radiographic findings typically observed in conventional advanced OA. The term “joint replacement” or “JR” refers to joint replacement surgery.
To examine different phenotypes of OA (generalized OA in particular) a subgroup analysis based on the number of large joints (knees, hips, shoulders) with OA at baseline was performed. OA joints were defined as any hip or knee with baseline KL 2 score or above and any shoulder with a score of mild, moderate or severe. Thus, the minimum number of joints with OA was 1 and the maximum number could be 6. Three subgroups were arbitrarily designated 1-2, 3-4, and 5-6 large joints with OA at baseline.
The analyses are based on large numbers of patients: 2103 patients in the placebo group, 1676 patients in the fasinumab 1 mg Q8W group (also referred to herein as “1Q8”), and 3009 patients in the 1 mg Q4W group (also referred to herein as “1Q4”). The percentage of the population in each subgroup was similar across treatment arms; the 1-2 joint subgroup ranged from 55.8 to 59.5% of the entire population, the range for the 3-4 joint subgroup was 33.6 to 37.4%, and the range for in the 5-6 joint subgroup was 6.7 to 7.1%.

[5] = test system: adults with moderate-to-severe chronic pain associated with osteoarthritis (OA) of the knee or hip; test: FACT LTS (NCT02683239, R475-PN-1523) efficacy substudy; format: in vivo, human; conditions: fasinumab 1 mg Q8W and 1 mg Q4W groups
From the text: as §1, §2

[6] = FACT OA2, Week 24, fasinumab 1 mg Q4W, diclofenac 2 × 75 mg/day or celecoxib 200 mg/d
[7] = FACT OA2, Week 24, fasinumab 1 mg Q4W, nominal p < 0.0001
[8] = 1 mg Q4W (1Q4), 1-2 joint subgroup
[9] = 1 mg Q4W (1Q4), 5-6 joint subgroup
[10] = 1 mg Q8W (1Q8), 1-2 joint subgroup
[11] = 1 mg Q8W (1Q8), 5-6 joint subgroup

Substance: Fasinumab: fully-human high-affinity monoclonal antibody directed against NGF; HCVR/LCVR SEQ ID NOs: 2/10
- WOMAC pain, change from baseline [1, 6]: −42%
- WOMAC pain, change from baseline (score, in brackets) [1, 6]: (−2.79)
- WOMAC physical function, change from baseline [1, 6]: −39%
- WOMAC physical function, change from baseline (score, in brackets) [1, 6]: (−2.63)
- WOMAC pain, difference vs. placebo [1, 7]: −0.79
- WOMAC physical function, difference vs. placebo [1, 7]: −0.82
- WOMAC physical function, difference vs. diclofenac/celecoxib ([1]; FACT OA2, Week 24, fasinumab 1 mg/month, nominal p = 0.0152): −0.36
- WOMAC pain, difference vs. diclofenac/celecoxib ([1]; FACT OA2, Week 24, fasinumab 1 mg/month, nominal p = 0.0503): −0.30
- co-primary endpoints: pain and physical function compared to placebo ([1]; FACT OA2, fasinumab 1 mg Q4W, p<0.01 for all endpoints): significantly reduced pain and improved physical function compared to placebo
- rates of adjudicated arthropathies compared with placebo or NSAIDs [2]: higher rates of arthropathies were adjudicated in patients treated with fasinumab compared with placebo or NSAIDs, which were dose-dependent
- odds ratios of DA, change in alkaline phosphatase above vs below cut-off ([3]; cut-offs 10, 15, 20 U/L at 16 weeks, 1Q4 and 1Q8): 6 to 25
- odds ratios of AA, change in alkaline phosphatase above vs below cut-off ([3]; cut-offs at 16 weeks, all 95% confidence intervals excluding 1): 1.5 to 2.5
- mean change from baseline in alkaline phosphatase (alkaline phosphatase): 20 U/L
- median time for detection of DA ([4]; 1 mg Q4W): 343.5 days
- difference in all AA from placebo ([4]; 1 mg Q4W (1Q4)): 5.7%
- JR rate, difference from placebo [4, 8]: 1.3%
- RPOA-1 rate [4, 8]: 5.8%
- RPOA-1 rate, difference versus placebo [4, 8]: 4.1%
- percentage of patients who developed adjudicated arthropathy (AA) [4, 8]: 7.7%
- percentage of patients who underwent joint replacement (JR) [4, 8]: 6.4%
- percentage of patients with destructive arthropathy (DA) [4, 8]: 0.3%
- percentage of patients who developed adjudicated arthropathy (AA) [4, 9]: 12.2%
- percentage of patients who underwent joint replacement (JR) [4, 9]: 14.6%
- percentage of patients with destructive arthropathy (DA) [4, 9]: 1.5%
- median time for detection of DA ([4]; 1 mg Q8W): 284 days
- difference in all AA from placebo ([4]; 1 mg Q8W (1Q8)): 3.7%
- JR rate, difference from placebo [4, 10]: 0.8%
- RPOA-1 rate [4, 10]: 4.8%
- RPOA-1 rate, difference versus placebo [4, 10]: 3.1%
- percentage of patients who developed adjudicated arthropathy (AA) [4, 10]: 5.7%
- percentage of patients who underwent joint replacement (JR) [4, 10]: 5.9%
- percentage of patients with destructive arthropathy (DA) [4, 10]: 0.2%
- percentage of patients who developed adjudicated arthropathy (AA) [4, 11]: 10.7%
- percentage of patients who underwent joint replacement (JR) [4, 11]: 12.5%
- percentage of patients with destructive arthropathy (DA) [4, 11]: 0.9%
- median time for detection of DA ([4]; pooled high dose (3 mg Q4W, 6 mg Q4W, 9 mg Q8W, 9 mg Q4W)): 364.5 days
- co-primary endpoints: pain and physical function (WOMAC score) compared to placebo [5]: significantly reduced pain and improved physical function (WOMAC score) compared to placebo

Source: patent US20240002491A1, “METHODS FOR SELECTING PATIENTS FOR TREATMENT WITH AN NGF ANTAGONIST” (Regeneron Pharmaceuticals, Inc., priority 2022, published 2024)
